From patent publication US8063014B2, “Self-assembly of peptide-amphiphile nanofibers under physiological conditions” (Northwestern University, priority 2002, dated 2011)
Non-standard residues stand in square brackets, D forms with d. No end group written: not given here. *: point of attachment. C16 alkyl = N-terminal C16 alkyl tail, CCCCCCCCCCCCCCCC*; pS = N[C@@H](COP(=O)(O)O)C(=O)O

Legend:
[1] = Gelation on mixing with cell culture media, PBS or Hank's solution; type: physicochemical; conditions: for gel formation on mixing with equal amounts of cell culture media: 10 mM PA solution in water; for gel formation on mixing with PBS and Hank's solutions depleted by Ca2+ and Mg2+: PA solution
Text: One potential application of the peptide-amphiphile self-assembled gels is in the area of tissue engineering, in particular the formation of artificial extracellular matrices and cell delivery systems. The results of this example show PA self-assembly in situ and in vitro cell culture systems. Body fluids as well as cell culture media contain significant amounts inorganic cations. It was presumed that the peptide amphiphiles would form a gel upon mixing with these liquids.
(§1) The synthesis of the peptide amphiphiles illustrates in examples 19-22 was performed using a standard synthesis scheme described elsewhere, herein, and as further available in the literature. Regarding gelation and with reference to the data of Table 3, […] volumes of PA solutions at concentrations 10 mg/ml (approximately 8 mM), pH 7.5 were mixed with 1 M solutions of NaCl, KCl, MgCl2, CaCl2, BaCl2, ZnBr2, […], Gd^+3 and Cu(ClO4)2. The amount of polyvalent ions added to the solutions varied from 0.5 to 5 metal ions per molecule of PA. For monovalent metal ions the maximum concentration of 6 M of metal ions per 10 mM of PA molecules has been tested. The solutions of the metal salts were added to the PA solutions by micropeppetors, the solutions were stirred briefly, in order to obtain better mixing of the components. The formation of self-supporting gels was examined by flipping of the vials up side down. In order to test the ability of cell compatible solutions to induce a gelation of PAs equal amounts 10 mM PA solutions were mixed with following formulations: MEM-α, DMEM containing 10% of fetal bovine serum, PBS without Ca^+2 and Mg^+2 and Hank's solution without Ca^+2 and Mg^+2 (Gibco). The ability of the above solutions to induce formation of the PAs was examined visually by flipping the vials up side down.

[2] = Gelation on addition of metal salts (vial inversion); type: physicochemical; conditions: for gelation properties, KCl / gelation properties, BaCl2 / gelation properties, CaCl2 / gelation properties, GdCl3 / gelation properties, ZnBr2 / gelation properties, MgCl2 / gelation properties, Cu(ClO4)2: PA 10 mg/ml (roughly 8 mM); for gelation properties, BaCl2 / gelation properties, CaCl2 / gelation properties, GdCl3 / gelation properties, ZnBr2 / gelation properties, MgCl2 / gelation properties, Cu(ClO4)2: salt 20 mM; for result of addition of 200 mM of KCl / gelation in the presence of KCl or NaCl: 10 mM PA solution; for gelation in the presence of KCl or NaCl: salt concentrations up to 6M; for minimal amount of CA+2 and Gd+3 ions needed for the gelation: titration
Procedure: 100 μl of 10 mg/ml solution of peptide-amphiphile 20 was treated with 1M CaCl2 (adjusted to pH 6) drop wise in 1 μl increments. The solutions were shaken after each addition of the CaCl2 solution in order to obtain better diffusion of the divalent metal ions. Gelation was immediate. […] This calcium induced self-assembly may be particularly useful for medical applications where formation of a gel at physiological pH is desired. Trivalent metal cations can also be used for gelation.
To determine the relative number of metal ions necessary for gelation of the PAs, titration experiments were performed with PA molecules 26 and 27. […] (See Table 3, below). […] None of the negatively charged peptide-amphiphiles except molecule 32 formed gels in the presence of KCl at a ratio 1 molecule of PA per 20 molecules of KCl.
as §1

[3] = Solubility, pH-dependent precipitation and gelation in water; type: physicochemical
Procedure: After synthesis (see, example 10), the PA of FIG. 1 (characterized by ^1H NMR and matrix-assisted laser desorption/ionization time-of-flight mass spectrometry (MALDI-TOF MS): matrix ion [M−H]^−1=1333) was treated with dithiothreitol (DTT) at a pH of 8 to reduce all cysteine residues to free thiols. […] However, upon acidification of the solution below pH 4 the material rapidly becomes insoluble. Solutions more concentrated than 2.5 mg/ml form birefringent gels in water that are self-supporting upon inversion of the container. […] Negatives were digitized in the Umax PowerLook scanner with resolution 1200 dpi. The average thickness of the PA fibers was determined by two different procedures. First the Fourier transform of the images and following measurements of the distances between the peaks were performed in the NIH Image […] program. The second approach applied was averaging technique based on the cross-correlation method, widely used in single particle reconstruction using the EMAN […] program. For each data set 1200-1300 individual boxes were selected.
Several PAs with basic amino acids that can self-assemble at alkaline pH and also mixed systems, in which oppositely charged PAs self-assemble at neutral pH, were prepared. For this purpose PA compounds 22-25 were prepared by standard solid phase peptide synthesis followed by alkylation with the C16 fatty acid, palmitic acid. See Table 2, FIG. 10b (PA 22) and FIGS. 10c-e (PAs 23-25). The peptides thus prepared were characterized by electrospray mass spectroscopy and found to correspond to their respective expected masses.
Solutions of each compound of example 6 were prepared at a concentration of 0.1 mg/m1 at neutral pH.

[4] = Mineralization of PA nanofibers with CaCl2 and Na2HPO4 on TEM grid
Procedure: To investigate the mineralization properties of PA nanofibers of this invention, the material was assembled and mineralized directly on a holey carbon coated TEM grid—to allow study of the dynamics of the mineralization process while minimizing artifacts of TEM sample preparation. To prepare samples, a drop of aqueous PA (1 mg/ml) was mounted on the holey grid and the self-assembly of the PA was induced in an atmosphere of HCl vapor. The grids were immersed in aqueous iodine to oxidize the cysteine thiol groups to disulfides. After rinsing with distilled water, the PA coated grids were treated with 5 μl of 10 mM CaCl2 on one side and 5 μl of 5 mM Na2HPO4 on the other side. The two solutions are able to mix only by passing through the holes in the carbon support.
In a second control, a PA was prepared in which phosphoserine was replaced by serine and treated as above with calcium and phosphate.

[5] = KCl concentration up to 6M (molecules 26 and 27)

Substance	gelation properties, KCl ([2]; KCl 200 mM, pH 7.5)	gelation properties, BaCl2 [2]	gelation properties, CaCl2 [2]	gelation properties, GdCl3 [2]	gelation properties, ZnBr2 [2]	other results
28 (AAAAGGG[pS]KGE-OH; not fully specified (N-terminus)) [compound 28]	Liquid	gel	gel	gel	gel	gel formation on mixing with equal amounts of cell culture media [1]: gel formation was observed; gel formation on mixing with PBS and Hank's solutions depleted by Ca2+ and Mg2+ [1]: no gel formation was observed
29 (CCCCGGGSRGD-OH; not fully specified (N-terminus); cysteine pairing not given here) [compound 29]	Liquid	gel	gel	gel	gel	–
21 ({C16 alkyl}-CCCCGGGEIKVAV-OH; cysteine pairing not given here) [compound 21]	–	–	–	–	–	appearance of the solution ([3]; 5 mg/ml in water at pH 7): slightly cloudy
Alkyl-C4G3SRGD-COOH ({C16 alkyl}-CCCCGGGSRGD-OH; cysteine pairing not given here) [PA 29]	–	–	–	–	–	mineral observed on the fibers by TEM ([4]; 20 minutes of incubation with calcium and phosphate): only amorphous mineral deposit; mineral observed on the fibers by TEM ([4]; 30 minutes of incubation with calcium and phosphate): only amorphous mineral
32 (CCCCGGGEIKVAV-OH; not fully specified (N-terminus); cysteine pairing not given here) [compound 32]	gel	–	gel	gel	gel	result of addition of 200 mM of KCl [2]: formation of a self-supporting gel; gel formation in the presence of KCl ([2]; ratio 1 molecule of PA per 20 molecules of KCl): formed gels; gelation properties, MgCl2 [2]: gel
33 ({C16 alkyl}-CCCCGGGKIKVAV-NH2; cysteine pairing not given here) [compound 33]	–	–	–	–	–	gel formation on mixing with equal amounts of cell culture media [1]: gel formation was observed; result of addition of 200 mM of KCl [2]: formation of a self-supporting gel
31 ({C16 alkyl}-AAAAGGGERGDS-OH; SMILES CCCCCCCCCCCCCCCCN[C@@H](C)C(=O)N[C@@H](C)C(=O)N[C@@H](C)C(=O)N[C@@H](C)C(=O)NCC(=O)NCC(=O)NCC(=O)N[C@@H](CCC(=O)O)C(=O)N[C@@H](CCCNC(=N)N)C(=O)NCC(=O)N[C@@H](CC(=O)O)C(=O)N[C@@H](CO)C(=O)O) [compound 31]	liquid	–	–	gel	gel	–
25 ({C16 alkyl}-AAAAGGGEIKVAV-OH; SMILES CCCCCCCCCCCCCCCCN[C@@H](C)C(=O)N[C@@H](C)C(=O)N[C@@H](C)C(=O)N[C@@H](C)C(=O)NCC(=O)NCC(=O)NCC(=O)N[C@@H](CCC(=O)O)C(=O)N[C@H](C(=O)N[C@@H](CCCCN)C(=O)N[C@H](C(=O)N[C@@H](C)C(=O)N[C@H](C(=O)O)C(C)C)C(C)C)[C@@H](C)CC) [compound 25]	–	–	–	–	–	pH below which the PA precipitates on slow acidification (HCl) ([3]; 0.1 mg/ml solution): < 4.5 pH; state at neutral pH ([3]; 0.1 mg/ml solution): completely dissolved; state on increasing the solution's pH (KOH) ([3]; 0.1 mg/ml solution): completely dissolved
24 ({C16 alkyl}-AAAAGGGKYIGSR-NH2; SMILES CCCCCCCCCCCCCCCCN[C@@H](C)C(=O)N[C@@H](C)C(=O)N[C@@H](C)C(=O)N[C@@H](C)C(=O)NCC(=O)NCC(=O)NCC(=O)N[C@@H](CCCCN)C(=O)N[C@@H](Cc1ccc(O)cc1)C(=O)N[C@H](C(=O)NCC(=O)N[C@@H](CO)C(=O)N[C@@H](CCCNC(=N)N)C(N)=O)[C@@H](C)CC) [compound 24]	–	–	–	–	–	pH above which a precipitate forms on slow addition of base ([3]; 0.1 mg/ml solution): above 9.5 pH; state at neutral pH ([3]; 0.1 mg/ml solution): completely dissolved; appearance of the solution ([3]; 10 mg/ml, neutral pH): cloudy and viscous
27 (AAAAGGG[pS]RGD-OH; not fully specified (N-terminus); printed as Alkyl-A4G3S(P)RGD-COOH) [compound 27]	–	gel	gel	gel	gel	gel formation on mixing with equal amounts of cell culture media [1]: gel formation was observed; gel formation on mixing with PBS and Hank's solutions depleted by Ca2+ and Mg2+ [1]: no gel formation was observed; gelation in the presence of KCl or NaCl [2]: did not gel; gelation properties, KCl [2, 5]: Liquid; gelation properties, Cu(ClO4)2 [2]: gel; minimal amount of CA+2 and Gd+3 ions needed for the gelation [2]: about equal to the number of PA molecules in solution
30 ({C16 alkyl}-AAAGGEQS-OH; SMILES CCCCCCCCCCCCCCCCN[C@@H](C)C(=O)N[C@@H](C)C(=O)N[C@@H](C)C(=O)NCC(=O)NCC(=O)N[C@@H](CCC(=O)O)C(=O)N[C@@H](CCC(N)=O)C(=O)N[C@@H](CO)C(=O)O) [compound 30]	Liquid	gel	gel	gel	gel	gelation properties, Cu(ClO4)2 [2]: gel; gelation properties, MgCl2 [2]: gel
26 (CCCCGGG[pS]RGD-OH; not fully specified (N-terminus); cysteine pairing not given here) [compound 26]	–	gel	gel	gel	gel	gelation in the presence of KCl or NaCl [2]: did not gel; gelation properties, KCl [2, 5]: Liquid; minimal amount of CA+2 and Gd+3 ions needed for the gelation [2]: about equal to the number of PA molecules in solution
22 ({C16 alkyl}-CCCCGGGKIKVAV-NH2; cysteine pairing not given here) [compound 22]	–	–	–	–	–	appearance of the solution ([3]; 5 mg/ml in water at pH 7): slightly cloudy; appearance of the solution ([3]; 10 mg/ml, neutral pH): cloudy and viscous
20 ({C16 alkyl}-CCCCGGGSRGD-OH; cysteine pairing not given here) [compound 20]	–	–	–	–	–	gelation on dropwise addition of CaCl2 ([2]; 100 μl of 10 mg/ml PA, 1M CaCl2 (pH 6) in 1 μl increments): immediate
